Source: patent EP4269437A1

B1: NB221 (VHH)
VHH: EVQLVESGGGLVQAGDSLRLSCAASGRTFSSVAMGWFRQAPGKEREFVAAISRSGGSAGYADSVKDRSTIARDNTKNTVYLQMNSLKPEDTAVYFCAASEYDFCSTHGCYDYWGQGTQVTISL
B2: NB222 (VHH)
VHH: QVQLVESGGGLVQAGGSLRLSCAASGGTFSNFNVGWFRQAPGKEREFVAASNWSAGTTHYSDSVKGRFTISRDNAANTAYLQMNSLRPDDTAVYYCNRVIRGTTYPDVYYGMDYWGKGTLVTVSS
B3: NB223 (VHH)
VHH: EVQLVESGGGLVQAGGSLRLSCAASGRTFSSYGMGWFRQAPGKEREFVAAVNWSNSSAYYADSVKDRFTISSDNAKSTIYLQMNSLKPEDTAVYYCRPYSDYVTYDPDDYDYWGQGTQVTVSS
B4: NB532 (VHH)
VHH: QVQLVETGGGLVQAGGSLRLSCAASGRTFSSYNMGWFRQAPGKEREFVAAISWSGGSQGYAAAVKDRFTISRDNAKNTVYLQMNSLKAEDTAVYYCAAKYHSGSYYYTSIRPEEYDYWGQGTQVTVSS
B5: NB548 (VHH)
VHH: QLQLVESGGGLVQPGGSLRLSCTANGFSVGDYSMSWHRQPPGKEREVVATTARDSGSTFYAASVKGRFTISRDNAKNTVYLQMNSLKPEDTGVYYCRVNSQDYWGQGTQVTVSS
B6: NB733 (VHH)
VHH: QVQLVESGGGLVQPGASLRLSCAAAGFTFSSWAMTWVRQAPGKGLEWVSAISSGSGEMADYADSVKGRFAISRDNAKNTLYLQMNNLQPEDTAMYYCAKGGYLTYANLGPGTQVTVSS
B7: NB734 (VHH)
VHH: QVQLVETGGGLVQAGGSLRLSCAASGDTILFSAVGWHRQAPGKERELVAAITNSGVTYYADSVKGRFSISRDNAKNTVYLQMNSLKPEDTAVYYCNAGAPPPGEFGYDESDYWGQGTQVTVSS
B8: NB735 (VHH)
VHH: EVQVVESGGGLVQPGGSLTLSCAVSGFTLDDYSIGWFRQAPGRAREAVSCTSNRDGSTYYEDSVKGRFTISRDNAKNTVYLQMNSLKPEDTAVYRCSTDCSLYGSTYSPDYWGQGTQVIVSS
B9: NB754 (VHH)
VHH: QLQLVESGGGLVQPGGSLRLSCAVSGFTFSSDAMNWYRQAPGKERELVASITIDGGSTNYADSVKGRFTISRDNAKNTLYLQMNSLKPEDTAVYYCNADRGIIIYGKTYWGQGTQVTVSS
B10: NB755 (VHH)
VHH: QVQLVESGGGLVQAGGSLRLSCVDSGRTFSSYGMGWFRQAPGKEREFVAAVNWRNTTAYYADSAKDRFTISSDNAKNTVYLQMASLKPEDTGVYYCRPYSDYVSYDPTEYDSWGQGTQVTVSS
B11: NB139 (VHH)
VHH: EVQVVESGGGLVQTGGSLRLSCAASGDTALISAMGWYRQAPGKERELVAALTNTGITYYADSVKGRFTISRDNAKNTVYLQMNSLKPEDTAVYYCNAGAPPPGGLGYDESDYWGQGTQVTVSS
B12: NB147 (VHH)
VHH: EVQVVESGGGVVQAGDSLRLSCVASGRTFSSVAMGWFRQAPGKEREFVAAISRSGGSAGYSDSVKDRSTISRDNAKNTVYLQMNSLKPEDTAVYFCAASELDFCSTLGCYDYWGQGIQVTFSS
B13: NB148 (VHH)
VHH: QVQLVESGGGLVQAGGSLRLSCAASGGTFSGSELGWFRQAPGKEREFVAGISRNGGTTGYSDSVKDRFTIARDNAKNTVYLQMNSLKPEDTAVYYCAAGLRAYYGDSYVDTMTENYNYWGQGTQVTVSS
B14: NB153 (VHH)
VHH: DVQLQESGGGLVQAGGSLRVSCAASGRTFSSYGMGWFRQAPGKERELVAAITNTGLTYYADSVEGRFTISRDAAKNTVYLQMNSLEPEDTAVYYCNAGAPPPGGLGYDESDYWGQGTLVTVSS
B15: NB154 (VHH)
VHH: QVQLVESGGGLVQAGDSLRLSCAASGGTFSGYGMGWFRQAPGKEREFVAGISRHGGSTGYSSSVKDRFTISRDNAKNTVDLQMNSLKPEDTAVYHCAAALRPDYGDSYVYTSTSNYEYWGQGTQVTVSS
B16: NB159 (VHH)
VHH: QVQLVESGGGSVQAGDSLRISCEASGRTFMRYSMGWFRQASGKEREFVAAISWGGSSTYYADSVKGRFIISRDNTKNTVFLQMNSLKPEDTAVYYCAADTNPSGSWDRPTNEAEYDYWGQGTQVTVSS
B17: NB164 (VHH)
VHH: QVQLVESGGGLLQAGDSLRLSCIASGRTFSSYAMGWFRQAPGKEREFVAGINGNGRSQYYAEVVKDRFFISRDNAKNTVYLQMNSLKPEDTAVYYCAAEGHLGVPTVRSDEYDYWGQGTQVTVSS
B18: NB166 (VHH)
VHH: EVQVQESGGGLVQAGGSLTLSCAASGDTILISSIGWYRQAPGKERELVAAITNSGLTYYPDSVKGRFTISRDNAKNTVYLQMNNLKPEDTAVYYCNAGGPPPGGLGYDESDYWGQGTQVTVSS
B19: NB169 (VHH)
VHH: QVQLVESGGGLVPPGGSLRLSCAASGFTFSSYPMSWYRQAPGRKRDFVAMLTGAGGSTDYADSVKGRFTISRDNAKNTVYLQMNSLKPEDTAVYYCNAPAAMRDYGIDYWGKGTLVNVSS
B20: NB170 (VHH)
VHH: EVQLVESGGGLVQAGDSLRLSCAASGGTFGRLETGWFRQAPGKEREFVAAISWDGETSYADSVKGRFTISRDNAKNTMALQMNRLTPEDTAVYFCAARVILRAYKYWGQGTQVTVSS
B21: NB171 (VHH)
VHH: QVQLVESGGGLVQAGGSLRLSCAASGRTFSSYAMGWFRQALGKEREWIAGVSMSGRTTYYAAPVKDRFTISRDNAKNTVTLQMNSLKPEDTAVYYCAAGRAQAEIPIMRAQEYDSWGQGTQVTVSS

Tests used:
PD-1 [1] = molecular target: PD-1 (UniProt Q15116); assay: ELISA, TG1 supernatant on coated PD-1, anti-c-myc HRP
PD-1 [2] = molecular target: PD-1 (UniProt Q15116); assay: blocking ELISA, clone supernatant, competitor PD-L1.hFc detected with anti-human Fc HRP

Chain of PD-1 (Q15116 25-170 limits assumed): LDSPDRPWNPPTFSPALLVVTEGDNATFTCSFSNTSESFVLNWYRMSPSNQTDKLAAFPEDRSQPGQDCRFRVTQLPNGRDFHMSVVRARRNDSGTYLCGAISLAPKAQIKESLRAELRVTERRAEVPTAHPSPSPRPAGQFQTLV

Row | Binder | OD450, clone binding with PD-1 (PD-1 [1]) | OD450, PD-L1 binding with PD-1 (PD-1 [2])
1 | B1 | 2.62 OD450 | 2.25 OD450
2 | B2 | 3.13 OD450 | 2.23 OD450
3 | B3 | 1.3 OD450 | 2.25 OD450
4 | B4 | 1.36 OD450 | 2.19 OD450
5 | B5 | 2.13 OD450 | 2.43 OD450
6 | B6 | 1.03 OD450 | 2.47 OD450
7 | B7 | 2.17 OD450 | 1.42 OD450
8 | B8 | 1.81 OD450 | 2.44 OD450
9 | B9 | 2.04 OD450 | 2.37 OD450
10 | B10 | 1.7 OD450 | 2.2 OD450
11 | B11 | 3.12 OD450 | 2.39 OD450
12 | B12 | 2.63 OD450 | 0.994 OD450
13 | B13 | 2.84 OD450 | 2.56 OD450
14 | B14 | 3.29 OD450 | 2.05 OD450
15 | B15 | 2.61 OD450 | 2.28 OD450
16 | B16 | 1.84 OD450 | 2.1 OD450
17 | B17 | 2.84 OD450 | 2 OD450
18 | B18 | 3.39 OD450 | 2.29 OD450
19 | B19 | 2.9 OD450 | 2.13 OD450
20 | B20 | 2.7 OD450 | 2.02 OD450
21 | B21 | 2.78 OD450 | 0.715 OD450
